Key:
[1] = molecular target: amylin receptor 1 extracellular domain, wild type (hRAMP1.24–111-(GSA)3-hCTR.34–141-H6) (human) (UniProt O60894); test: competition binding assay; non-labeled sCT(22–32) as competitor on amylin receptor 1 ECDs (Figure S3); probe and conditions not shown
[2] = molecular target: FITC-labeled salmon calcitonin (sCT) fragment(22–32); test: fluorescence anisotropy, FITC-peptide probe binding; conditions: anisotropy at the highest receptor concentration shown for this mutant, read off a plot
[3] = molecular target: FITC-labeled AC413(6–25) with Y25P mutation; test: as above; conditions: anisotropy at the highest receptor concentration shown, log [RAMP1 ECD-CTR ECD fusion] M = -6; parent: est. 0.19; read off a plot
[4] = molecular target: amylin receptor 1 ECD ECD (Homo sapiens) (UniProt P30988); conditions: cited from earlier work
[5] = log [RAMP1 ECD-CTR ECD fusion] M = -5.5, parent: est. 0.19

salmon calcitonin fragment sCT(22-32) 22-32, sequence (P01263 whole entry, looked up, the tested form may be a part): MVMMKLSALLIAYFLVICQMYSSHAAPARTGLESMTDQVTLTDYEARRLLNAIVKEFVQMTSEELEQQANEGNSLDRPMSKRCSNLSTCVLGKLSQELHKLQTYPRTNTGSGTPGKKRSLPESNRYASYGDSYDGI

Substance	response [2, 5]	response [3]	other results
non-labeled salmon calcitonin (sCT) (22–32) fragment (peptide)	–	–	Ki [1]: 0.891 µM
amylin receptor 1 extracellular domain, wild type (hRAMP1.24–111-(GSA)3-hCTR.34–141-H6) (from UniProt O60894) N135A	0.081	0.1	–
amylin receptor 1 extracellular domain, wild type (hRAMP1.24–111-(GSA)3-hCTR.34–141-H6) (from UniProt O60894) N135D	0.052	0.056	–
amylin receptor 1 extracellular domain, wild type (hRAMP1.24–111-(GSA)3-hCTR.34–141-H6) (from UniProt O60894) D101A	–	0.041	response ([2]; log [RAMP1 ECD-CTR ECD fusion] M = -6, parent: est. 0.18): 0.035
amylin receptor 1 extracellular domain, wild type (hRAMP1.24–111-(GSA)3-hCTR.34–141-H6) (from UniProt O60894) D101E	0.035	0.046	–
salmon calcitonin fragment sCT(22-32) 22-32 (from UniProt P01263)	–	–	Ki [4]: 2.5 µM

Source: PMC12292835, “Amylin Receptor 1 Mutagenesis Revealed a Potential Role of Calcitonin Serine 29 in Receptor Interaction” (Biomedicines, 2025)
